This is an account of results in paper PMC7312009, “SIRT7 Deacetylates STRAP to Regulate p53 Activity and Stability” (International Journal of Molecular Sciences, 2020).

The target in the test is T1, Flag-tagged SIRT7 (UniProt Q9NRC8 1-400).
T1 construct: also called SIRT7 protein purified from 293T cells; source: purified from 293T cells; HEK293T, transfected, in lysate
T1 sequence (looked up): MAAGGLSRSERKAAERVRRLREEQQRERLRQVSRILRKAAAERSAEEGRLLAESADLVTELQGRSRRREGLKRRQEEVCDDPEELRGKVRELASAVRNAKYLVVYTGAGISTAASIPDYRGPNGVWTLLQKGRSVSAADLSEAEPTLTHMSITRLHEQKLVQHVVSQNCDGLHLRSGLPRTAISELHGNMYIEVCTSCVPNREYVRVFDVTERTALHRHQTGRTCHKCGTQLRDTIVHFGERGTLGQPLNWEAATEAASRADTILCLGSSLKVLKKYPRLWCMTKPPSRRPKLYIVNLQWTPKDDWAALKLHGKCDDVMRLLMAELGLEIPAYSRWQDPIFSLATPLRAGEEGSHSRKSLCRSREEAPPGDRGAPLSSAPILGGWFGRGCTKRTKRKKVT
Nature of the test: pull-down; 1 μg GST-STRAP fusion protein incubated with Flag-tagged SIRT7 purified from 293T cells in 100 μL BC100 at 4 °C overnight, then glutathione-sepharose beads 2 h; Western blotting. Particulars: both partners purified. In general terms: In western blotting, separated proteins are transferred to a membrane and probed.

B1: GST-STRAP full length (natural protein, UniProt Q9Y3F4 1-350, looked up)
chain: MAMRQTPLTCSGHTRPVVDLAFSGITPYGYFLISACKDGKPMLRQGDTGDWIGTFLGHKGAVWGATLNKDATKAATAAADFTAKVWDAVSGDELMTLAHKHIVKTVDFTQDSNYLLTGGQDKLLRIYDLNKPEAEPKEISGHTSGIKKALWCSEDKQILSADDKTVRLWDHATMTEVKSLNFNMSVSSMEYIPEGEILVITYGRSIAFHSAVSLDPIKSFEAPATINSASLHPEKEFLVAGGEDFKLYKYDYNSGEELESYKGHFGPIHCVRFSPDGELYASGSEDGTLRLWQTVVGKTYGLWKCVLPEEDSGELAKPKIGFPETTEEELEEIASENSDCIFPSAPDVKA
notes: Serine-threonine kinase receptor-associated protein (STRAP), full length, subcloned into pGEX4T-3; also called GST-STRAP (FL); full-length STRAP (WT); source: purified GST fusion protein (pGEX4T-3)
Consider B1, for which the binding result is on record as “binds”.
